IntAct's records for PubMed 22178926

B1: Integrin beta-3 (Homo sapiens), P05106 (parent)
chain: MRARPRPRPLWATVLALGALAGVGVGGPNICTTRGVSSCQQCLAVSPMCAWCSDEALPLGSPRCDLKENLLKDNCAPESIEFPVSEARVLEDRPLSDKGSGDSSQVTQVSPQRIALRLRPDDSKNFSIQVRQVEDYPVDIYYLMDLSYSMKDDLWSIQNLGTKLATQMRKLTSNLRIGFGAFVDKPVSPYMYISPPEALENPCYDMKTTCLPMFGYKHVLTLTDQVTRFNEEVKKQSVSRNRDAPEGGFDAIMQATVCDEKIGWRNDASHLLVFTTDAKTHIALDGRLAGIVQPNDGQCHVGSDNHYSASTTMDYPSLGLMTEKLSQKNINLIFAVTENVVNLYQNYSELIPGTTVGVLSMDSSNVLQLIVDAYGKIRSKVELEVRDLPEELSLSFNATCLNNEVIPGLKSCMGLKIGDTVSFSIEAKVRGCPQEKEKSFTIKPVGFKDSLIVQVTFDCDCACQAQAEPNSHRCNNGNGTFECGVCRCGPGWLGSQCECSEEDYRPSQQDECSPREGQPVCSQRGECLCGQCVCHSSDFGKITGKYCECDDFSCVRYKGEMCSGHGQCSCGDCLCDSDWTGYYCNCTTRTDTCMSSNGLLCSGRGKCECGSCVCIQPGSYGDTCEKCPTCPDACTFKKECVECKKFDRGALHDENTCNRYCRDEIESVKELKDTGKDAVNCTYKNEDDCVVRFQYYEDSSGKSILYVVEEPECPKGPDILVVLLSVMGAILLIGLAALLIWKLLITIHDRKEFAKFEEERARAKWDTANNPLYKEATSTFTNITYRGT

Variants of: B1
Conditions: with ITGA2B

Effect of a mutation on the interaction, disrupting interaction strength:
K742L
K742C
K742A
K742E
K742S
